For one molecule, Kd results are on record in PMC8895158 (2022).

In this test the target is His-Src SH3 (UniProt P12931 84-145). The test is described as follows: SPR. (In general: In SPR one partner is held on a chip, and binding of the other changes the refractive index at the surface.)

Usually Kd stands for the equilibrium constant for the complex coming apart. A higher Kd goes with lower affinity.

Consider RKLPPRPSK [RLP1 peptide], for which the affinity, expressed as Kd, was 9.97 µM. This lies in the single-digit micromolar range.
